# Reference: PMC9418810
# Target: AcMYB1 (full length) in the AD plasmid pGADT7 (Allium cepa (onion))
substance,measurement,value
"AcB2 (full length, 1–615 aa) in the BD plasmid pGBKT7 (natural protein)","AcANS or AcF3H1 promoter-luciferase reporter activation in Arabidopsis leaf protoplasts, coexpression of AcB2 and AcMYB1 compared with AcMYB1 alone",> 2.5 fold
